Measured values reported in PMC6739602, “Intestinal Gel-Forming Mucins Polymerize by Disulfide-Mediated Dimerization of D3 Domains” (Journal of Molecular Biology, 2019).

Columns and labels:
[1] = target: the molecule itself; assay: SEC-MALS; Superdex 200 Increase 10/300 column, 0.5 ml/min, 25 mM Hepes (pH 7.4), 250 mM NaCl, 0.02% sodium azide
[2] = target: the molecule itself; assay: SEC-MALS; Superose 6 10/300 column, 0.5 ml/min, 10 mM Tris (pH 7.4), 20 mM NaCl, 0.02% sodium azide

Protein	stoichiometry N [1]	stoichiometry N [2]
MUC2D3, mucin 2 recombinant protein spanning residues 858 to 1259 (domain or fragment, N-linked glycans (six potential N-linked glycosylation sites); for the crystals endoH-treated to leave only a monosaccharide at glycosylated asparagines; intersubunit disulfides C1088-C1088 and C1130-C1130, cleavage is predicted to occur between the two adjacent alanines; mucin 2 (MUC2), human, Uniprot Q02817, residues 858 to 1259 (VWD3, C8-3, TIL-3 and E-3 domains); Expressed in pcDNA3.1 downstream of the QSOX1 signal peptide; kifunensine/EndoH-treated protein gave the crystals of the solved structure; Disulfide-linked homodimer; also called mucin 2 multimerization module; MUC2 region spanning the …) APGTCSIYGSGHYITFDGKYYDFDGHCSYVAVQDYCGQNSSLGSFSIITENVPCGTTGVTCSKAIKIFMGRTELKLEDKHRVVIQRDEGHHVAYTTREVGQYLVVESSTGIIVIWDKRTTVFIKLAPSYKGTVCGLCGNFDHRSNNDFTTRDHMVVSSELDFGNSWKEAPTCPDVSTNPEPCSLNPHRRSWAEKQCSILKSSVFSICHSKVDPKPFYEACVHDSCSCDTGGDCECFCSAVASYAQECTKEGACVFWRTPDLCPIFCDYYNPPHECEWHYEPCGNRSFETCRTINGIHSNISVSYLEGCYPRCPKDRPIYEEDLKKCVTADKCGCYVEDTHYPPGASVPTEETCKSCVCTNSSQVVCRPEEGKILNQTQDGAFCYWEICGPNGTVEKHFNICSIT	2	
D1D2D3CysD1, mucin 2 recombinant protein spanning residues 21 to 1397 (domain or fragment, human, UniProt Q02817 21-1397, looked up, mucin 2 (MUC2), human, Uniprot Q02817, residues 21 to 1397 (includes the CysD1 domain following a short threonine-rich segment); Probably made with the same QSOX1 signal peptide as MUC2D3, which would leave Ala-Pro at the N-terminus; also called the largest fragment; source: HEK293F, produced and purified essentially as for MUC2D3 (no kifunensine; preparative gel filtration in 10 mM Hepes pH 7.5, …)) SELQTEGRTRNHGHNVCSTWGNFHYKTFDGDVFRFPGLCDYNFASDCRGSYKEFAVHLKRGPGQAEAPAGVESILLTIKDDTIYLTRHLAVLNGAVVSTPHYSPGLLIEKSDAYTKVYSRAGLTLMWNREDALMLELDTKFRNHTCGLCGDYNGLQSYSEFLSDGVLFSPLEFGNMQKINQPDVVCEDPEEEVAPASCSEHRAECERLLTAEAFADCQDLVPLEPYLRACQQDRCRCPGGDTCVCSTVAEFSRQCSHAGGRPGNWRTATLCPKTCPGNLVYLESGSPCMDTCSHLEVSSLCEEHRMDGCFCPEGTVYDDIGDSGCVPVSQCHCRLHGHLYTPGQEITNDCEQCVCNAGRWVCKDLPCPGTCALEGGSHITTFDGKTYTFHGDCYYVLAKGDHNDSYALLGELAPCGSTDKQTCLKTVVLLADKKKNVVVFKSDGSVLLNELQVNLPHVTASFSVFRPSSYHIMVSMAIGVRLQVQLAPVMQLFVTLDQASQGQVQGLCGNFNGLEGDDFKTASGLVEATGAGFANTWKAQSSCHDKLDWLDDPCSLNIESANYAEHWCSLLKKTETPFGRCHSAVDPAEYYKRCKYDTCNCQNNEDCLCAALSSYARACTAKGVMLWGWREHVCNKDVGSCPNSQVFLYNLTTCQQTCRSLSEADSHCLEGFAPVDGCGCPDHTFLDEKGRCVPLAKCSCYHRGLYLEAGDVVVRQEERCVCRDGRLHCRQIRLIGQSCTAPKIHMDCSNLTALATSKPRALSCQTLAAGYYHTECVSGCVCPDGLMDDGRGGCVVEKECPCVHNNDLYSSGAKIKVDCNTCTCKRGRWVCTQAVCHGTCSIYGSGHYITFDGKYYDFDGHCSYVAVQDYCGQNSSLGSFSIITENVPCGTTGVTCSKAIKIFMGRTELKLEDKHRVVIQRDEGHHVAYTTREVGQYLVVESSTGIIVIWDKRTTVFIKLAPSYKGTVCGLCGNFDHRSNNDFTTRDHMVVSSELDFGNSWKEAPTCPDVSTNPEPCSLNPHRRSWAEKQCSILKSSVFSICHSKVDPKPFYEACVHDSCSCDTGGDCECFCSAVASYAQECTKEGACVFWRTPDLCPIFCDYYNPPHECEWHYEPCGNRSFETCRTINGIHSNISVSYLEGCYPRCPKDRPIYEEDLKKCVTADKCGCYVEDTHYPPGASVPTEETCKSCVCTNSSQVVCRPEEGKILNQTQDGAFCYWEICGPNGTVEKHFNICSITTRPSTLTTFTTITLPTTPTTFTTTTTTTTPTSSTVLSTTPKLCCLWSDWINEDHPSSGSDDGDRETFDGVCGAPEDIECRSVKDPHLSLEQLGQKVQCDVSVGFICKNEDQFGNGPFGLCYDYKIRVNCCWPMDKCIT		2
D1D2D3, mucin 2 recombinant protein spanning residues 21 to 1259 (domain or fragment, human, UniProt Q02817 21-1259, looked up, mucin 2 (MUC2), human, Uniprot Q02817, residues 21 to 1259; Probably made with the same QSOX1 signal peptide as MUC2D3, which would leave Ala-Pro at the N-terminus; also called MUC2 D1D2D3; source: HEK293F, produced and purified essentially as for MUC2D3 (no kifunensine; preparative gel filtration in 10 mM Hepes pH 7.5, 20 mM NaCl); not shown: His6, C-terminal, kept) SELQTEGRTRNHGHNVCSTWGNFHYKTFDGDVFRFPGLCDYNFASDCRGSYKEFAVHLKRGPGQAEAPAGVESILLTIKDDTIYLTRHLAVLNGAVVSTPHYSPGLLIEKSDAYTKVYSRAGLTLMWNREDALMLELDTKFRNHTCGLCGDYNGLQSYSEFLSDGVLFSPLEFGNMQKINQPDVVCEDPEEEVAPASCSEHRAECERLLTAEAFADCQDLVPLEPYLRACQQDRCRCPGGDTCVCSTVAEFSRQCSHAGGRPGNWRTATLCPKTCPGNLVYLESGSPCMDTCSHLEVSSLCEEHRMDGCFCPEGTVYDDIGDSGCVPVSQCHCRLHGHLYTPGQEITNDCEQCVCNAGRWVCKDLPCPGTCALEGGSHITTFDGKTYTFHGDCYYVLAKGDHNDSYALLGELAPCGSTDKQTCLKTVVLLADKKKNVVVFKSDGSVLLNELQVNLPHVTASFSVFRPSSYHIMVSMAIGVRLQVQLAPVMQLFVTLDQASQGQVQGLCGNFNGLEGDDFKTASGLVEATGAGFANTWKAQSSCHDKLDWLDDPCSLNIESANYAEHWCSLLKKTETPFGRCHSAVDPAEYYKRCKYDTCNCQNNEDCLCAALSSYARACTAKGVMLWGWREHVCNKDVGSCPNSQVFLYNLTTCQQTCRSLSEADSHCLEGFAPVDGCGCPDHTFLDEKGRCVPLAKCSCYHRGLYLEAGDVVVRQEERCVCRDGRLHCRQIRLIGQSCTAPKIHMDCSNLTALATSKPRALSCQTLAAGYYHTECVSGCVCPDGLMDDGRGGCVVEKECPCVHNNDLYSSGAKIKVDCNTCTCKRGRWVCTQAVCHGTCSIYGSGHYITFDGKYYDFDGHCSYVAVQDYCGQNSSLGSFSIITENVPCGTTGVTCSKAIKIFMGRTELKLEDKHRVVIQRDEGHHVAYTTREVGQYLVVESSTGIIVIWDKRTTVFIKLAPSYKGTVCGLCGNFDHRSNNDFTTRDHMVVSSELDFGNSWKEAPTCPDVSTNPEPCSLNPHRRSWAEKQCSILKSSVFSICHSKVDPKPFYEACVHDSCSCDTGGDCECFCSAVASYAQECTKEGACVFWRTPDLCPIFCDYYNPPHECEWHYEPCGNRSFETCRTINGIHSNISVSYLEGCYPRCPKDRPIYEEDLKKCVTADKCGCYVEDTHYPPGASVPTEETCKSCVCTNSSQVVCRPEEGKILNQTQDGAFCYWEICGPNGTVEKHFNICSIT		2
